Drawing on paper PMC12830090, this text covers pKa for one substance.

Holding throughout (assay): NMR
Data set [1] addresses His33 (UniProt position 33, TDWCGHCQAAQ). As to conditions: 298 K.
In data set [2] the target is Cys34 (UniProt position 34, DWCGHCQAAQP). As to conditions: 298 K; reduced (dithiol) Patrx2, with DTT.
Data set [3] addresses Cys31 (UniProt position 31, FGTDWCGHCQA). Conditions: 298 K; reduced (dithiol) Patrx2, with DTT.

Usually pKa stands for the pH at which an ionisable group is half protonated. High values mean a weaker acid or stronger base, low ones a stronger acid or weaker base.

“Patrx2 (atypical thioredoxin, PA2694) (Pseudomonas aeruginosa)”: the pKa entry in data set [1] (oxidised (C31-C34 disulfide) Patrx2, without DTT) was “less than 5”; in data set [1] (reduced (dithiol) Patrx2, with DTT), 6.3; in data set [2] it was “greater than 11.5”; in data set [3], 5.8.
